Source: patent US20190316150A1

Assays:
Experiment in all cases: cell-based or functional assay
[1] = target: T1, NLS-GFP-OsJAZ^33 (SV40; Oryza sativa)
T1 sequence: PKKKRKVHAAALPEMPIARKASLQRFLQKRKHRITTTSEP

[2] = target: T2, GFP-AtJAZ^FL (Arabidopsis thaliana) (UniProt Q9LMA8)
T2 sequence: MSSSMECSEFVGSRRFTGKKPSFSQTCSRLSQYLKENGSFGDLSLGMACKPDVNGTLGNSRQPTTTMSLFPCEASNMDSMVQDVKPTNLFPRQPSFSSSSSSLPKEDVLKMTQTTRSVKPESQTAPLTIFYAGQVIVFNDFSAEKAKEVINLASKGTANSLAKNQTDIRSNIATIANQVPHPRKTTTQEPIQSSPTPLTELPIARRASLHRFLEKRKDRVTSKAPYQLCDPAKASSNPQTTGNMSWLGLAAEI

[3] = target: OsJAZ^33-p53 (Oryza sativa; human) (UniProt P04637)
[4] = target: T3, GFP-OsJAZ^23 (Oryza sativa)
T3 sequence: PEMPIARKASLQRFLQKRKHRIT

B1: OsTIR1^F-box-OsCOI1B^LRR (receptor)
chain: MYPYDVPDYATYFPEEVVEHIFSFLPAQRDRNTVSLVCKVWYEIERLSRKHVTVPFCYAASPAHLLARFPRLESLAVKGKPRAAMYGLIPEDWGAYARPWVAELAAPLECLKALHLRRMVVTDDDLAALVRARGHMLQELKLDKCSGFSTDALRLVARSCRSLRTLFLEECSIADNGTEWLHDLAVNNPVLETLNFHMTELTVVPADLELLAKKCKSLISLKISDCDFSDLIGFFRMAASLQEFAGGAFIEQGELTKYGNVKFPSRLCSLGLTYMGTNEMPIIFPFSALLKKLDLQYTFLTTEDHCQLIAKCPNLLVLAVRNVIGDRGLGVVADTCKKLQRLRVERGDDDPGLQEEQGGVSQVGLTTVAVGCRELEYIAAYVSDITNGALESIGTFCKNLCDFRLVLLDREERITDLPLDNGVRALLRGCTKLRRFALYLRPGGLSDTGLGYIGQYSGIIQYMLLGNVGETDDGLIRFALGCENLRKLELRSCCFSEQALARAIRSMPSLRYVWVQGYKASKTGHDLMLMARPFWNIEFTPPSSENANRMREDGEPCVDSQAQILAYYSLAGKRSDCPRSVVPLYPA
Work on B1 yielded a coronatine-induced GFP degradation, flow cytometry, HEK-293T, pJAZ version 7 [1] greater than 95%, a coronatine-induced degradation, flow cytometry, several cell types carrying pJAZ and pRAIDRS [1] of 90 to 99% and a coronatine-induced GFP degradation, flow cytometry, HEK-293T, pJAZ version 6-AtFL [2] of 95%. For the same binder, the coronatine-dependent degradation, western blot quantification, H9 hESCs, 50 µM coronatine 1 day [3] was 90% and the coronatine-dependent GFP degradation, flow cytometry, HEK-293T, pJAZ version 6-Os23 [4] was 90%.
